Measurements as given in PMC8298264, “Function of cofactor Akirin2 in the regulation of gene expression in model human neutrophil-like HL60 cells” (Bioscience Reports, 2021).

B1: Galectin-9 (protein, UniProt O00182 1-355, looked up)
Galectin-9: MAFSGSQAPYLSPAVPFSGTIQGGLQDGLQITVNGTVLSSSGTRFAVNFQTGFSGNDIAFHFNPRFEDGGYVVCNTRQNGSWGPEERKTHMPFQKGMPFDLCFLVQSSDFKVMVNGILFVQYFHRVPFHRVDTISVNGSVQLSYISFQNPRTVPVQPAFSTVPFSQPVCFPPRPRGRRQKPPGVWPANPAPITQTVIHTVQSAPGQMFSTPAIPPMMYPHPAYPMPFITTILGGLYPSKSILLSGTVLPSAQRFHINLCSGNHIAFHLNPRFDENAVVRNTQIDNSWGSEERSLPRKMPFVRGQSFSVWILCEAHCLKVAVDGQHLFEYYHRLRNLPTINRLEVGGDIQLTHVQT
B2: Alpha-2-HS-glycoprotein (protein, UniProt P02765 19-300; P02765 341-367, looked up)
Alpha-2-HS-glycoprotein chain … 1: APHGPGLIYRQPNCDDPETEEAALVAIDYINQNLPWGYKHTLNQIDEVKVWPQQPSGELFEIEIDTLETTCHVLDPTPVARCSVRQLKEHAVEGDCDFQLLKLDGKFSVVYAKCDSSPDSAEDVRKVCQDCPLLAPLNDTRVVHAAKAALAAFNAQNNGSNFQLEEISRAQLVPLPPSTYVEFTVSGTDCVAKEATEAAKCNLLAEKQYGFCKATLSEKLGGAEVAVTCMVFQTQPVSSQPQPEGANEAVPTPVVDPDAPPSPPLGAPGLPPAGSPPDSHVL
Alpha-2-HS-glycoprotein chain … 2: TVVQPSVGAAAGPVVPPCPGRIRHFKV
B3: Intraflagellar transport protein 25 homolog (protein, UniProt Q9Y547 1-144, looked up)
Intraflagellar transport …: MRKIDLCLSSEGSEVILATSSDEKHPPENIIDGNPETFWTTTGMFPQEFIICFHKHVRIERLVIQSYFVQTLKIEKSTSKEPVDFEQWIEKDLVHTEGQLQNEEIVAHDGSATYLRFIIVSAFDHFASVHSVSAEGTVVSNLSS
B4: Heat shock protein 105 kDa (protein, UniProt Q92598 2-858, looked up)
Heat shock protein 105 kDa: SVVGLDVGSQSCYIAVARAGGIETIANEFSDRCTPSVISFGSKNRTIGVAAKNQQITHANNTVSNFKRFHGRAFNDPFIQKEKENLSYDLVPLKNGGVGIKVMYMGEEHLFSVEQITAMLLTKLKETAENSLKKPVTDCVISVPSFFTDAERRSVLDAAQIVGLNCLRLMNDMTAVALNYGIYKQDLPSLDEKPRIVVFVDMGHSAFQVSACAFNKGKLKVLGTAFDPFLGGKNFDEKLVEHFCAEFKTKYKLDAKSKIRALLRLYQECEKLKKLMSSNSTDLPLNIECFMNDKDVSGKMNRSQFEELCAELLQKIEVPLYSLLEQTHLKVEDVSAVEIVGGATRIPAVKERIAKFFGKDISTTLNADEAVARGCALQCAILSPAFKVREFSVTDAVPFPISLIWNHDSEDTEGVHEVFSRNHAAPFSKVLTFLRRGPFELEAFYSDPQGVPYPEAKIGRFVVQNVSAQKDGEKSRVKVKVRVNTHGIFTISTASMVEKVPTEENEMSSEADMECLNQRPPENPDTDKNVQQDNSEAGTQPQVQTDAQQTSQSPPSPELTSEENKIPDADKANEKKVDQPPEAKKPKIKVVNVELPIEANLVWQLGKDLLNMYIETEGKMIMQDKLEKERNDAKNAVEEYVYEFRDKLCGPYEKFICEQDHQNFLRLLTETEDWLYEEGEDQAKQAYVDKLEELMKIGTPVKVRFQEAEERPKMFEELGQRLQHYAKIAADFRNKDEKYNHIDESEMKKVEKSVNEVMEWMNNVMNAQAKKSLDQDPVVRAQEIKTKIKELNNTCEPVVTQPKPKIESPKLERTPNGPNIDKKEEDLEDKNNFGAEPPHQNGECYPNEKNSVNMDLD
B5: Lysozyme C (protein, UniProt P61626 19-148, looked up)
Lysozyme C: KVFERCELARTLKRLGMDGYRGISLANWMCLAKWESGYNTRATNYNAGDRSTDYGIFQINSRYWCNDGKTPGAVNACHLSCSALLQDNIADAVACAKRVVRDPQGIRAWVAWRNRCQNRDVRQYVQGCGV
B6: PML-RARA-regulated adapter molecule 1 (protein, UniProt Q96QH2 1-670, looked up)
PML-RARA-regulated adapter …: MAHHLPAAMESHQDFRSIKAKFQASQPEPSDLPKKPPKPEFGKLKKFSQPELSEHPKKAPLPEFGAVSLKPPPPEVTDLPKKPPPPEVTDLPKKPPPPEVTDLPKKPPPPEVTDLPKKPSKLELSDLSKKFPQLGATPFPRKPLQPEVGEAPLKASLPEPGAPARKPLQPDELSHPARPPSEPKSGAFPRKLWQPEAGEATPRSPQPELSTFPKKPAQPEFNVYPKKPPQPQVGGLPKKSVPQPEFSEAAQTPLWKPQSSEPKRDSSAFPKKASQPPLSDFPKKPPQPELGDLTRTSSEPEVSVLPKRPRPAEFKALSKKPPQPELGGLPRTSSEPEFNSLPRKLLQPERRGPPRKFSQPEPSAVLKRHPQPEFFGDLPRKPPLPSSASESSLPAAVAGFSSRHPLSPGFGAAGTPRWRSGGLVHSGGARPGLRPSHPPRRRPLPPASSLGHPPAKPPLPPGPVDMQSFRRPSAASIDLRRTRSAAGLHFQDRQPEDIPQVPDEIYELYDDVEPRDDSSPSPKGRDEAPSVQQAARRPPQDPALRKEKDPQPQQLPPMDPKLLKQLRKAEKAEREFRKKFKFEGEIVVHTKMMIDPNAKTRRGGGKHLGIRRGEILEVIEFTSNEEMLCRDPKGKYGYVPRTALLPLETEVYDDVDFCDPLENQPLPLGR
B7: Perilipin-3 (protein, UniProt O60664 2-434, looked up)
Perilipin-3: SADGAEADGSTQVTVEEPVQQPSVVDRVASMPLISSTCDMVSAAYASTKESYPHIKTVCDAAEKGVRTLTAAAVSGAQPILSKLEPQIASASEYAHRGLDKLEENLPILQQPTEKVLADTKELVSSKVSGAQEMVSSAKDTVATQLSEAVDATRGAVQSGVDKTKSVVTGGVQSVMGSRLGQMVLSGVDTVLGKSEEWADNHLPLTDAELARIATSLDGFDVASVQQQRQEQSYFVRLGSLSERLRQHAYEHSLGKLRATKQRAQEALLQLSQVLSLMETVKQGVDQKLVEGQEKLHQMWLSWNQKQLQGPEKEPPKPEQVESRALTMFRDIAQQLQATCTSLGSSIQGLPTNVKDQVQQARRQVEDLQATFSSIHSFQDLSSSILAQSRERVASAREALDHMVEYVAQNTPVTWLVGPFAPGITEKAPEEKK
B8: OCIA domain-containing protein 1 (protein, UniProt Q9NX40 1-245, looked up)
OCIA domain-containing …: MNGRADFREPNAEVPRPIPHIGPDYIPTEEERRVFAECNDESFWFRSVPLAATSMLITQGLISKGILSSHPKYGSIPKLILACIMGYFAGKLSYVKTCQEKFKKLENSPLGEALRSGQARRSSPPGHYYQKSKYDSSVSGQSSFVTSPAADNIEMLPHYEPIPFSSSMNESAPTGITDHIVQGPDPNLEESPKRKNITYEELRNKNRESYEVSLTQKTDPSVRPMHERVPKKEVKVNKYGDTWDE
B9: Bone marrow proteoglycan (protein, UniProt P13727 17-222, looked up)
Bone marrow proteoglycan: LHLRSETSTFETPLGAKTLPEDEETPEQEMEETPCRELEEEEEWGSGSEDASKKDGAVESISVPDMVDKNLTCPEEEDTVKVVGIPGCQTCRYLLVRSLQTFSQAWFTCRRCYRGNLVSIHNFNINYRIQCSVSALNQGQVWIGGRITGSGRCRRFQWVDGSRWNFAYWAAHQPWSRGGHCVALCTRGGHWRRAHCLRRLPFICSY
B10: Serpin B8 (protein, UniProt P50452 1-374, looked up)
Serpin B8: MDDLCEANGTFAISLFKILGEEDNSRNVFFSPMSISSALAMVFMGAKGSTAAQMSQALCLYKDGDIHRGFQSLLSEVNRTGTQYLLRTANRLFGEKTCDFLPDFKEYCQKFYQAELEELSFAEDTEECRKHINDWVAEKTEGKISEVLDAGTVDPLTKLVLVNAIYFKGKWNEQFDRKYTRGMLFKTNEEKKTVQMMFKEAKFKMGYADEVHTQVLELPYVEEELSMVILLPDDNTDLAVVEKALTYEKFKAWTNSEKLTKSKVQVFLPRLKLEESYDLEPFLRRLGMIDAFDEAKADFSGMSTEKNVPLSKVAHKCFVEVNEEGTEAAAATAVVRNSRCSRMEPRFCADHPFLFFIRHHKTNCILFCGRFSSP
B11: Copper transport protein ATOX1 (protein, UniProt O00244 1-68, looked up)
Copper transport protein ATOX1: MPKHEFSVDMTCGGCAEAVSRVLNKLGGVKYDIDLPNKKVCIESEHSMDTLLATLKKTGKTVSYLGLE
B12: UDP-N-acetylglucosamine--peptide N-acetylglucosaminyltransferase 110 kDa subunit (protein, UniProt O15294 2-1046, looked up)
UDP-N-acetylglucosamine--pepti …: ASSVGNVADSTEPTKRMLSFQGLAELAHREYQAGDFEAAERHCMQLWRQEPDNTGVLLLLSSIHFQCRRLDRSAHFSTLAIKQNPLLAEAYSNLGNVYKERGQLQEAIEHYRHALRLKPDFIDGYINLAAALVAAGDMEGAVQAYVSALQYNPDLYCVRSDLGNLLKALGRLEEAKACYLKAIETQPNFAVAWSNLGCVFNAQGEIWLAIHHFEKAVTLDPNFLDAYINLGNVLKEARIFDRAVAAYLRALSLSPNHAVVHGNLACVYYEQGLIDLAIDTYRRAIELQPHFPDAYCNLANALKEKGSVAEAEDCYNTALRLCPTHADSLNNLANIKREQGNIEEAVRLYRKALEVFPEFAAAHSNLASVLQQQGKLQEALMHYKEAIRISPTFADAYSNMGNTLKEMQDVQGALQCYTRAIQINPAFADAHSNLASIHKDSGNIPEAIASYRTALKLKPDFPDAYCNLAHCLQIVCDWTDYDERMKKLVSIVADQLEKNRLPSVHPHHSMLYPLSHGFRKAIAERHGNLCLDKINVLHKPPYEHPKDLKLSDGRLRVGYVSSDFGNHPTSHLMQSIPGMHNPDKFEVFCYALSPDDGTNFRVKVMAEANHFIDLSQIPCNGKAADRIHQDGIHILVNMNGYTKGARNELFALRPAPIQAMWLGYPGTSGALFMDYIITDQETSPAEVAEQYSEKLAYMPHTFFIGDHANMFPHLKKKAVIDFKSNGHIYDNRIVLNGIDLKAFLDSLPDVKIVKMKCPDGGDNADSSNTALNMPVIPMNTIAEAVIEMINRGQIQITINGFSISNGLATTQINNKAATGEEVPRTIIVTTRSQYGLPEDAIVYCNFNQLYKIDPSTLQMWANILKRVPNSVLWLLRFPAVGEPNIQQYAQNMGLPQNRIIFSPVAPKEEHVRRGQLADVCLDTPLCNGHTTGMDVLWAGTPMVTMPGETLASRVAASQLTCLGCLELIAKNRQEYEDIAVKLGTDLEYLKKVRGKVWKQRISSPLFNTKQYTMELERLYLQMWEHYAAGNKPDHMIKPVEVTESA

Test system: human HL60 cells
Test: SWATH-MS proteomics, differential protein representation, akirin2 KO vs WT HL60 cells
Format: cell-based
Details: SWATH-MS, akirin2 KO vs WT HL60 cells; over-represented in KO
Method in brief: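 Read-out is label-free SWATH-MS protein area, globally normalized to total detected-protein area, with identifications held at 1% FDR against a library from information-dependent acquisition.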

Point of comparison: B10, “Fold Change” value 2.0658. Against it:
- B1 — lower, 1.857
- B2 — higher, 2.248
- B3 — lower, 2.042
- B4 — lower, 1.783
- B5 — higher, 2.204
- B6 — higher, 2.265
- B7 — lower, 1.9528
- B8 — lower, 1.964
- B9 — higher, 6.406
- B11 — lower, 1.845
- B12 — lower, 2.047

Point of comparison: B3, “Log (Fold Change)” value 0.31. Against it:
- B1 — within 0.2 log units, 0.2687
- B2 — within 0.2 log units, 0.3517
- B4 — within 0.2 log units, 0.2511
- B5 — within 0.2 log units, 0.3432
- B6 — within 0.2 log units, 0.355
- B7 — within 0.2 log units, 0.2907
- B8 — within 0.2 log units, 0.2932
- B9 — higher, 0.8066
- B10 — within 0.2 log units, 0.3151
- B11 — within 0.2 log units, 0.266
- B12 — within 0.2 log units, 0.3112
